In doi:10.1101/2024.09.27.615457 (bioRxiv, 2024):

Molecular target: T1, MBP-tagged bHLH107 (Arabidopsis, UniProt Q9LET0 1-230)
T1 sequence (looked up): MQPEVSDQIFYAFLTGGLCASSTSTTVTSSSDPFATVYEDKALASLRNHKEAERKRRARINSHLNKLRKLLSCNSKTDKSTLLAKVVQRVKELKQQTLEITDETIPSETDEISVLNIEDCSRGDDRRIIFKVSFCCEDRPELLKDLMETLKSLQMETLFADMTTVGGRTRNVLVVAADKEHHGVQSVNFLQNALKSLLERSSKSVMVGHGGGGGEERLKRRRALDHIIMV
Assay: pull-down

binding result: binds
B1: His-tagged HY5 (natural protein, Arabidopsis, UniProt O24646 1-168, looked up)
chain: MQEQATSSLAASSLPSSSERSSSSAPHLEIKEGIESDEEIRRVPEFGGEAVGKETSGRESGSATGQERTQATVGESQRKRGRTPAEKENKRLKRLLRNRVSAQQARERKKAYLSELENRVKDLENKNSELEERLSTLQNENQMLRHILKNTTGNKRGGGGGSNADASL
